The source of these data is patent US10962528B2, “Blue fluorescent protein monomers and uses thereof” (WISYS TECHNOLOGY FOUNDATION, INC., priority 2015, dated 2021).

Substitutions are numbered along the chain they refer to. Names may count otherwise.

Data set [1] can be described thus: Photobleaching / photo-stability studies. Type of data set: physicochemical. As for the experimental part:
FIGS. 11C-11D (C) Titration of apo-SFP (20 uM) with BV IXα measured at 675 nm with λex=375 nm (green) and 630 nm (red). (D) Photo-bleaching kinetics of Sandercyanin and free-biliverdin (BV).
(§1) All experiments were performed with purified SFP samples (apo and holo forms) at pH 7.5 and room temperature. UV-Visible absorbance spectra of native and recombinant SFP were recorded from 800 to 200 nm with ultraspec 2100 pro spectrophotometer from Amersham Biosciences. CD spectra were measured on JASCO J-815 Spectropolarimeter. Steady state fluorescence, excitation, binding and photobleaching studies were monitored on Horiba Jobin Yvon Fluoromax-4 fluorimeter. Data analysis were done using Origin6 and Origin8 software. Hydrogen was exchanged with Deuterium by increasing concentrations of D2O to a standard protein concentration. Deuteriated proteins were prepared in the same buffer, incubated for 15 minutes, and monitored for spectral properties.

A short description of data set [2]: Fluorescence of free biliverdin in different solvent conditions. Type of data set: physicochemical. To be noted: increased hydrophobicity of the medium. An excerpt:
FIG. 11F Effect of hydrophobicity of solvent on fluorescence spectra of biliverdin monitored at excitation wavelengths of (left) 375 nm and (right) 600 nm. Labels are biliverdin in DMSO 1150, biliverdin in acetone 1152, biliverdin in ethanol 1154, biliverdin in benzene 1156, and biliverdin in toluene 1158.
FIG. 11G Effect of viscosity of solvent (PEG 400) on fluorescence spectra of biliverdin monitored at excitation wavelengths of (left) 375 nm and (right) 600 nm. Labels are 0% PEG400 1160, 5% PEG400 1162, 10% PEG400 1164, and 15% PEG400 1166.
We performed experiments with free biliverdin in different solvents conditions, to understand the molecular basis of the observed fluorescent properties of Sandercyanin-BV complex. […] A similar trend was observed on increasing the viscosity of medium with increased polyethylene glycol and changing the pH of medium to pH 8.8-9.5.

The subject of data set [3] is apoSFP. As to the kind of experiment: Binding of apoSFP with other tetrapyrroles monitored by fluorescence. Also on record: species or system Sander vitreus. To be noted: excitation at 375 nm and 630 nm. An excerpt:
FIG. 11E Binding of apoSFP with other tetrapyrroles monitored by fluorescence on excitation at (left) 375 nm and (right) 630 nm.
To examine the specificity of Sandercyanin to bilverdin IXa, we tested other BV-like tetrapyrrol compounds: hemin, bilirubin, and esterified BV derivatives.

The nature of data set [4]: Biliverdin binding of SFP and monomeric variants (fluorescence titration, UV-visible absorbance). The method, then:
as §1
All SFP variants were expressed using E. coli BL21*(DE3) cells. […] Thus, refolded purified SFP was checked using an analytical gel filtration column for oligomerization state and biliverdin (BV) binding by UV-visible absorbance and fluorescence spectroscopy (FIGS. 1A-1D).
Characterization of monoSFP Variants—MonoSFP variants were characterized by size-exclusion chromatography during purification of the proteins. […] They have far-red to near infra-red fluorescence with large Stokes shift. […] To test this, we performed detergent (Triton X-100) assays with the monoSFPs and measured absorbance and fluorescence spectra. […]

A short description of data set [5]: Steady state fluorescence spectra and quantum yield. Type of data set: physicochemical. The following applies: for brightness relative to L135E monoSFP: glycine loop extension; for Quantum yield / Ex/Em1, emission / Ex/Em1, excitation: in complex with biliverdin. The method, then: as §1
Characterization of monoSFP Variants—MonoSFP variants were characterized by size-exclusion chromatography during purification of the proteins. We further characterized the spectral properties and binding-efficiencies of a few of these monoSFPs (Tables 2 and 4), and found them to be similar to wild-type SFP (FIG. 2, FIG. 3, Table 4). They have far-red to near infra-red fluorescence with large Stokes shift. […] To test this, we performed detergent (Triton X-100) assays with the monoSFPs and measured absorbance and fluorescence spectra. Further, we made attempts to extend one of the loops which encloses biliverdin in the centre of the protein. Two mutants, FH88insGG and VP95insGG, were extended with glycine residues at the 88th and 95th positions in the amino acid chain of L135E monoSFP mutant. One hypothesis was that extension would prevent photon loss due to solvent exposure of the ligand and enhance the quantum efficiency.

Data set [6] is described as follows: UV-Visible absorbance spectra. The format is physicochemical. The method, then:
as §1, with “All experiments were performed with purified SFP samples (apo and holo forms) at pH 7.5 and room temperature.” left out

The conditions of data set [7]: excitation at 380 nm and 630 nm, Yu et al. 2008; cited from earlier work.

On to `C=CC1=C(C)/C(=C/C2=NC(=C\c3[nH]c(/C=C4\NC(=O)C(C)=C4C=C)c(C)c3CCC(=O)O)/C(CCC(=O)O)=C2C)NC1=O` [Biliverdin, Biliverdin IXα, reference compound], for which, in data set [1], the “bleaching of free form relative to complex with Sandercyanin” value was “bleaches faster”. Moreover, the “far red fluorescence of free biliverdin” value in data set [2] is recorded as “enhanced far red fluorescence”.

Take `C=CC1=C(C)c2cc3[n-]c(cc4[n-]c(cc5nc(cc1n2)C(C)=C5C=C)c(C)c4CCC(=O)O)c(CCC(=O)O)c3C.[Cl-].[Fe+3]` [hemin]: the “binding and fluorescence with Sandercyanin” value in data set [3] was “does not show binding and fluorescence”.

B1: SFP-FH88insGG: L135E monoSFP extended with glycine residues at position 88, SEQ ID NO:5 (protein)
chain: MFIKPGRCPKPAVQEDFDAARYLGVWYDIQRLPNKFQKGECATATYSLSPGVGFSVFNRERLANGTIKSVIGSAIAEDPCEPAKLQFGGFHENAAPVPYWVLSTDYDNYALVYSCINEGASHAAYASIVSRQPTLPEETIKKLQGTMSSFGVGVDTLLTTNQDAAYCSAMNQ
As to B1, in data set [4], the “binding to biliverdin” value is recorded as “retained binding to biliverdin”. In data set [5], the “brightness relative to L135E monoSFP” value is recorded as “did not show significantly increased brightness” and the Quantum yield is 0.002. In data set [5] (UV/blue excitation), the Ex/Em1, emission came to 663 nm and the Ex/Em1, excitation was determined as 380 nm. In data set [5] (red excitation), this molecule yielded an Ex/Em1, emission of 653 nm and an Ex/Em1, excitation of 570 nm.

B2: SFP-V71E: monomeric SFP variant V71E, SEQ ID NO:2 (protein)
chain: FIKPGRCPKPAVQEDFDAARYLGVWYDIQRLPNKFQKGECATATYSLSPGEGFSVFNRERLANGTIKSVIGSAIAEDPCEPAKLQFFHENAAPVPYWVLSTDYDNYALVYSCINLGASHAAYASIVSRQPTLPEETIKKLQGTMSSFGVGVDTLLTTNQDAAYCSAMNQ
Turning to B2, the Quantum yield in data set [5] stood at 0.003. Further, in data set [5] (UV/blue excitation), the Ex/Em1, emission turned out to be 670 nm and the Ex/Em1, excitation was found to be 380 nm. In data set [5] (red excitation), this molecule gave an Ex/Em1, emission of 660 nm and an Ex/Em1, excitation of 600 nm.

B3: SFP-L135E: monomeric SFP variant L135E, SEQ ID NO:3 (protein)
chain: B2 chain with E51V, L115E
In the case of B3, in data set [5], the Quantum yield was 0.025. In data set [5] (UV/blue excitation), the Ex/Em1, emission came to 682 nm and the Ex/Em1, excitation came to 380 nm. In data set [5] (red excitation), this molecule yielded an Ex/Em1, emission of 676 nm and an Ex/Em1, excitation of 600 nm.

B4: SFP-A137E: monomeric SFP variant A137E, SEQ ID NO:4 (protein)
chain: B2 chain with E51V, A117E
In turn, B4 yielded a Quantum yield in data set [5] of 0.003. In data set [5] (UV/blue excitation), this molecule registered an Ex/Em1, emission of 663 nm and an Ex/Em1, excitation of 380 nm. In data set [5] (red excitation), this molecule had an Ex/Em1, emission of 653 nm and an Ex/Em1, excitation of 580 nm.

B5: Wild-type SFP: Sandercyanin fluorescent protein from walleye Sander vitreus mucus, biliverdin-binding lipocalin tetramer; SEQ ID NO:1 (recombinant SEQ ID NO:31) (protein, listed as Sander vitreus)
chain: MNAIQVISLTLLSVLAAKAMFIKPGRCPKPAVQEDFDAARYLGVWYDIQRLPNKFQKGECATATYSLSPGVGFSVFNRERLANGTIKSVIGSAIAEDPCEPAKLQFFHENAAPVPYWVLSTDYDNYALVYSCINLGASHAAYASIVSRQPTLPEETIKKLQGTMSSFGVGVDTLLTTNQDAAYCSAMAQ
modifications: biliverdin chromophore
In data set [5], B5 registered an excitation maxima of 375 nm and a Quantum yield of 0.016. In data set [5] (UV/blue excitation), this molecule came in with an Ex/Em1, emission of 675 nm and an Ex/Em1, excitation of 375 nm. In data set [5] (red excitation), this molecule gave an Ex/Em1, emission of 675 nm and an Ex/Em1, excitation of 630 nm. Besides, the “fluorescence intensity with D2O” value in data set [5] (increasing concentrations of D2O, no changes in the absorbance) is “increased fluorescence intensity”. For the same molecule, the “Molar extinction coefficient at 375 nm” value in data set [6] (phosphate buffer of pH 7.4, 375 nm) is given as 21,000 M^−1 cm^−1. Further, in data set [6] (phosphate buffer of pH 7.4, 630 nm), the “Molar extinction coefficient at 630 nm” value is 13,500 M^−1 cm^−1. The photo-stability of fluorescence entry in data set [1] (overnight exposure with UV or red light) is reported as “does not bleach significantly”. For the same molecule, in data set [1] (walleye mucous cells and solution, several hours of excitation and emission), the bleaching of fluorescence result is listed as “do not bleach”. Further, in data set [7], the emission maxima is 678 nm.

B6: SFP-VP95insGG: L135E monoSFP extended with glycine residues at position 95, SEQ ID NO:6 (protein)
chain: MFIKPGRCPKPAVQEDFDAARYLGVWYDIQRLPNKFQKGECATATYSLSPGVGFSVFNRERLANGTIKSVIGSAIAEDPCEPAKLQFFHENAAPGGVPYWVLSTDYDNYALVYSCINSFEGASHAAYASIVSRQPTLPEETIKKLQGTMSSFGVGVDTLLTTNQDAAYCSAMNQ
Turning to B6, the “binding to biliverdin” value in data set [4] is on record as “retained binding to biliverdin”. Also, in data set [5], the “brightness relative to L135E monoSFP” value is “did not show significantly increased brightness” and the Quantum yield is recorded as 0.003. In data set [5] (UV/blue excitation), this molecule returned an Ex/Em1, emission of 657 nm and an Ex/Em1, excitation of 380 nm. In data set [5] (red excitation), this molecule yielded an Ex/Em1, emission of 653 nm and an Ex/Em1, excitation of 570 nm.
